A short description of the series: label from the status in PepcDB records.
“VQPLATQCFQLSNMFNPQTEEEVGWDTEIKDDVIEECNKHGGVIHIYVDKNSAQGNVYVKCPSIAAAIAAVNALHGRWFAGKMITAAYVPLPTYHNLFPDSMTATQLLVPSRR”: the protein production entry is on record as “not failed”. With “VRQKGIDIIFMLDISNSMLARDTAPDRLTHAKTELLQISRRLGDGRKALLLFAGTPVVQCPLTDDEEDFEILLDMAAPELITTQGTDYRRAFDAALKLTNSGGELSSNETVLVLASDGEDHGNDLGDIATAMKTRGVHLHVIGVGGVQPVPIPMQGGPKRDQQGKIVLTSFKPEPLASLIKTAKGKFYYSRPDAPVHDAVADDIAAEAAEARW” the entry was “failed”; with “VRVLSYDKEKLNWLYKDPQGLVQGPFSLTQLKAWSDAEYFTKQFRVWMTGESMESAVLLTDVLRL”, “not failed”. With “VTVTDDYLANNVDYASGFKGPLPMPPSKHIAIVACMDARLDVYRMLGIKEGEAHVIRNAGCVVTDDVIRSLAISQRLLGTREIILLHHTDCGMLTFTDDDFKRAIQDETGIRPTWSPESYPDAVEDVRQSLRRIEVNPFVTKHTSLRGFVFDVATGKLNEVTP” the entry was “not failed”. To “VYTLMTTRSHDQYNTTLYGLDDRYRGVFGQRRVLFMNEQDIQEAGFQADQWVDIESIYSDGLKRIVRSFKIVPYNIPRGSMAAYYPETNPLVALSSHDKYAKIPASKSIPVILHPGQAPEHFNLAAPVDPEHANG” belongs “failed”; to “YATGNKKNISGSVEKITELGMNKDQITNPLEAIRGRVPGLTIQKGTNGPAALDAVRLRGTTSLTSGNDPLIIVDGVFGDLSMLTSIYPTDIESFTILKDASETAQYGSRGASGVIEITTKKGIRG”, “failed”; to “YAYSASLRVRQLGKPFMDEFSRRTNTTVSLTCRDRLSMIHVDSSRPPEVASLRMEPGLRLPLATSAAGRAYLAATPKIERDHLLGEVAKKLGDEWPALEKSLEDSFREYEEFGFCLSLGEWDRNVNGAGVPLRLADGSIMALTCGAPSFQLSSEKLESSLAHQLVMLARDLESLGV”, “failed”.

On to “YCEFLNNELRAHASDLLPTAPVPTMMLDRAWDEATLHNITQLIYDVRKDDALFRREISKPGAFDLMRKNYWDRREYSAVTLVGNETCNLAPLAELGFQIEVSQ”, for which the protein production result is “failed”. To “YCKTIPMPDLAYSEISVIGKLIRALPEPCALHLANSSTVRYAQLFTVPPQVEICCNRGVNGIEGSLSTAIGYAAASSKLNFIIIGDLSFFYDMNALWNQNYGANIRILLLNNEGGEIFHTLPGMDKSSRSREFITAEHYTTAKGWAEERGFIYMKVTGEEELEEAMQPFTSPETRMQPMLLEVFTDKEKD” belongs “failed”; to “YCKTIPMPDLAYSEISVIGKLIRALPEPCALHLANSSTVRYAQLFTVPPQVEICCNRGVNGIEGSLSTAIGYAAASSKLNFIIIGDLSFFYDMNALWNQNYGANIRILLLNNEGGEIFHTLPGMDKSSRSREFITAEHYTTAKGWAEERGFIYMKVTGEEELEEAMQPFTSPETRMQPMLLEVFTDKEKDTTLLREYYHGLKNKNE”, “failed”.

Turning to “YDASPAYYLYTSGSTGTPKCVVLNNRATAHVLQETIDFWGINDKDIHLAATPFHHDMSIFDLMAPLSVGGTLVVPTLEEAKSAVAWAELIERYQVSIWCTVPAMVDMLLTSAEPSQLQSIRLINQGGDYVKPSVVQKLREILPNTRLISIGGPTETTIWSIWHEITSEDI”, the protein production result is “failed”. With “YISAVQAGDTESFAPLVERYSDMLYALLCRLLQDEEDAADLLQDTFVKAFRHIGRFDGRSSFSTWIYRIAYNEAIDHLRRRKAYVTDRVEELPDVPDEDLEPSGEDPELLQQALDSLPAADKALLLMFYSDDLSVRDIAEVTGMSESNVKVKLHRLRTKLYKMMR” the entry was “failed”. With “YLASDGKTIIYVGRNNLQNEELTFKMARKEELWFHAKDIPGSHVVISGNLDPSDAVKTDAAELAAYFSQGRLSNLVQVDMIEVKKLNK” the entry was “failed”. As for “YNPWRNPQNALERRNIVLRLMLEHKMIGDELYQLLSQRPLGVQKKGQISRKYPAFIQTLQADLRRKLGEHKISSLLGA”, the protein production entry is “failed”.

For the origin of these results see a protein production outcome set (Wang et al. 2014).
